Test results as given in CN112538116A (DONGDA BIOTECHNOLOGY SUZHOU CO LTD, dated 2021).
Values belong to the binder of their own block, whether it stands above or below them.

Columns and labels:
人4-1BB on Jurkat-4-1BB细胞 = target: T1, 人4-1BB on Jurkat-4-1BB细胞 (human, UniProt Q07011 24-255); assay: FACS on Jurkat-4-1BB cells
T1 construct: whole, on cells; the reporter line Jurkat-4-1BB-NFkB-luc carries the same receptor; also called Jurkat-4-1BB-NFkB-luc; CD137

4-1BB-ECD-hFc [1] = target: T2, 4-1BB-ECD-hFc (human, UniProt Q07011 24-186); assay: ELISA, 4-1BB-ECD-hFc coated
T2 construct: extracellular domain; Coated on the ELISA plate; also called 4-1BB-hFc; 4-1BB-hFc蛋白; not shown: human Fc (hFc)

4-1BB-ECD-hFc [2] = target: T2, 4-1BB-ECD-hFc; assay: ELISA, method as in Example 1

T1 sequence (Q07011 24-255): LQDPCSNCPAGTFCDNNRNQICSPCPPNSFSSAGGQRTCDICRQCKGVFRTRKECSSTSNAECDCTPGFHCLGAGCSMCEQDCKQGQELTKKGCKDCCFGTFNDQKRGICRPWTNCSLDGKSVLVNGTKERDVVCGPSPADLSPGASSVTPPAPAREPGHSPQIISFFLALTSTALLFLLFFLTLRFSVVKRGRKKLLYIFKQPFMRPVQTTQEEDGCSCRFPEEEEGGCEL

B1: 抗人4-1BB杂交瘤抗体1A2 (antibody, V domains shown)
VH: EAQLQQSGAELVKPGASVKLSCTASGFNIKDTYMNWMKQRPEQGLEWIGRIAPANGNTKYAPQFQDKATITADTSSNTANLQLSSLTSEDTAVYYCARSYGSNFFDYWGQGTALTVSS
VL: EIQLTQSPASLAVSLGQRATISCKSSQSVDNYDNSFMHWYQQKPGQPPKLLIKRASNLETGVPARFSGSGSRTDFTLNIHPVEEEDTATYFCQQSVENPFTFGSGTKVELK
notes: Mouse hybridoma antibody purified on Protein A
- binding result (人4-1BB on Jurkat-4-1BB细胞): binds
- binding result (4-1BB-ECD-hFc [1]): binds

B2: 抗人4-1BB杂交瘤抗体8A8 (antibody, V domains shown)
VH: QVQLKQSGPGLVQPSQSLSITCTVSGFSLTNYGVHWVRQSPGKGLEWLGAIWSGGNTDYSAAFMSRVTINKDNSKSQVFFKMNSLRPDDTAIYYCARNPYYTNVMDYWGQGTSVTVSS
VL: DIQMTQSPASLSASVGETVTITCRASGNIGNFLAWYQQKQGKSPQLLVYNGETLADGVPSRFSGSGSGTQYSLKINSLQPEDFGSYYCQHFWSTPWTFGGGTKLEIK
notes: as for B1
- binding result (人4-1BB on Jurkat-4-1BB细胞): binds
- binding result (4-1BB-ECD-hFc [1]): binds

B7: 抗人4-1BB杂交瘤抗体2F10 (antibody, V domains shown)
VH: QVQLQQSGAALVKPGASVKLSCTASGFNIEDTYLNWVKQRPEQGLEWIGKIYPANGDTKYDPKFQGKATITAETPSNKAYLQLSSLTSEDTAVYYCTRGYGSNFFDCWGQGTSLTVSS
VL: DIVLTQSPASLAVALGQRATISCRASESVDSYDNSFMHWYQQKVGQPPKLLIYRASNLESGLPARFSGSGSRTDFTLTINPVEADDVATYYCQQSNEDPYTFGGGTKLEII
notes: as for B1
- binding result (人4-1BB on Jurkat-4-1BB细胞): binds
- binding result (4-1BB-ECD-hFc [1]): binds

B10: 抗人4-1BB杂交瘤抗体8E9 (antibody, V domains shown)
VH: QAQLQQSGPELVRPGTSVKMSCKTSGYSFTGYWMHWMKQRPGQGLEWIGMIDPSNSDTRLNQKFKDKATLNVDKSSNTAYMDFSSLTSEDSAVYYCARWRYYGYDGIAYWGQGTLVTVSA
VL: DIVMTQSPSSLTVTAGEKVTVSCKSSQSLLNSGNQRNYLTWYQQKPGQPPKLLIYWASTRESGVPDHFTGSGSGTDFTLTISSVQAEDLAVYYCQNDYTYPFTFGGGTKLEIK
notes: as for B1
- binding result (人4-1BB on Jurkat-4-1BB细胞): binds
- binding result (4-1BB-ECD-hFc [1]): binds

B11: 抗人4-1BB杂交瘤抗体10B2 (antibody, V domains shown)
VH: DVQLVESGGGLVQPGGSRKLSCAASGFTFSTFGLHWVRQAPEKGLEWVAYISSDSNTIYYADTMKGRFTISRDNPKNTLFLQLTSLRSEDTAVYYCTRGDPAYYGYGGRFVYALDFWGQGTSVAVSS
VL: DVVVTQTPLSLPVSFGDQVSISCRSSQSLTNSYGHTYLSWYLHKPGQSPQLLIYGISIRFSGVPDRFSGSGSGTDFTLRISTVKPEDLGMYYCLQGTHQPWTFGGGTKLEIK
notes: as for B1
- binding result (人4-1BB on Jurkat-4-1BB细胞): binds
- binding result (4-1BB-ECD-hFc [1]): binds

The next lines start with the values.

- binding result (人4-1BB on Jurkat-4-1BB细胞): binds
- binding result (4-1BB-ECD-hFc [2]): binds
B3: 抗人4-1BB人源化抗体3A11 (antibody, V domains shown)
VH: EVQLVESGGGLVKPGGSLRLSCAASGFIFNTNAMNWVRQAPGKGLEWIARIRSKINNYATYYADSVKDRFTISRDDSKNTLYLQMNSLKTEDTAVYYCNWDEAYWGQGTLVTVSS
VL: DIQMTQSPSSLSASVGDRVTITCKASDHINNWLAWYQQKPGKAPKLLIFGATSLETGVPSRFSGSASGNDYTLTISSLQPEDFATYYCQQYWSIPYTFGQGTKLEIK
notes: Humanised antibody expressed in 293 cells, purified on Protein A, captured by anti-human IgG in Biacore; also called hu3A11

- binding result (人4-1BB on Jurkat-4-1BB细胞): binds
- binding result (4-1BB-ECD-hFc [1]): binds
B4: 抗人4-1BB杂交瘤抗体3A11 (antibody, V domains shown)
VH: EVQLVETGGGLVQPNGSLKLSCAASGFIFNTNAMNWVRQAPGKGLEWIARIRSKINNYATYYADSVKDRFTISRDDSQSMLYLQMNNLKTEDTGMYYCNWDEAYWGQGTLVTVSA
VL: DIQMTQSSSYLSVSLGGRVTVTCKASDHINNWLAWYQQKPGNAPRLLIFGATSLETGVPSRFSGSASGNDYTLTITSLQTEDVATYYCQQYWSIPYTFGGGTKLEIK
notes: as for B1

- binding result (人4-1BB on Jurkat-4-1BB细胞): binds
- binding result (4-1BB-ECD-hFc [2]): binds
B5: 抗人4-1BB人源化抗体1A2 (antibody, V domains shown)
VH: EAQLVQSGAEVKKPGATVKISCKVSGFNIKDTYMNWVQQAPGKGLEWIGRIAPANGNTKYAPQFQDRATITADTSTDTAYMELSSLRSEDTAVYYCARSYGSNFFDYWGQGTLVTVSS
VL: EIVLTQSPATLSLSPGERATLSCKSSQSVDNYDNSFMHWYQQKPGQAPRLLIYRASNLETGIPARFSGSGSRTDFTLTISSLEPEDFAVYYCQQSVENPFTFGQGTKLEIK
notes: Humanised antibody expressed in 293 cells, purified on Protein A, captured by anti-human IgG in Biacore; also called hu1A2

- binding result (人4-1BB on Jurkat-4-1BB细胞): binds
- binding result (4-1BB-ECD-hFc [2]): binds
B6: 抗人4-1BB人源化抗体10B2 (antibody, V domains shown)
VH: QVQLVESGGGVVQPGRSLRLSCAASGFTFSTFGLHWVRQAPGKGLEWVAYISSDSNTIYYADTMKGRFTISRDNSKNTLYLQMNSLRAEDTAVYYCTRGDPAYYGYGGRFVYALDFWGQGTLVTVSS
VL: DVVVTQTPLSLSVTPGQPASISCRSSQSLTNSYGHTYLSWYLQKPGQSPQLLIYGISIRFSGVPDRFSGSGSGTDFTLKISRVEAEDVGVYYCLQGTHQPWTFGGGTKVEIK
notes: Humanised antibody expressed in 293 cells, purified on Protein A, captured by anti-human IgG in Biacore; also called hu10B2

- binding result (人4-1BB on Jurkat-4-1BB细胞): binds
- binding result (4-1BB-ECD-hFc [2]): binds
B8: 抗人4-1BB人源化抗体8H8 (antibody, V domains shown)
VH: QIQLVQSGSELKKPGASVKVSCKASGYTFSNYGMNWVRQAPGQGLEWMGWINTHTGEPTYADEFKGRFVFSLDTSVSTAYLQISSLKAEDTAVYYCARVLTMVMDYWGQGTLVTVSS
VL: DIVLTQSPDSLAVSLGERATINCRASEIIDGSGNSFVHWYQQKPGQPPKLLIYRTSTLESGVPDRFSGSGSRTDFTLTISSLQAEDVAVYYCLQTVEDPWTFGGGTKVEIK
notes: Humanised antibody expressed in 293 cells, purified on Protein A, captured by anti-human IgG in Biacore; also called hu8H8

- binding result (人4-1BB on Jurkat-4-1BB细胞): binds
- binding result (4-1BB-ECD-hFc [1]): binds
B9: 抗人4-1BB杂交瘤抗体3F10 (antibody, V domains shown)
VH: QVQLQQSGAELVRPGASVKISCKAFGFTFTHHHINWVKQRPGQGLDWIGYINPYNDYSIYNQKFEGKATLTVDKSSSTAYMELSRLTSDDSAVYFCARGGLGRGYFDYWGQGTTLTVSS
VL: DIVMTQSTAIMSASLGEKVTMTCRASSSVTSSYLHWYQQKSGASPKIWISSTSNLASGVPVRFSGSGSGTSYSLTISSVEAEDAATYYCQQYSGNPYTFGGGTKLEIK
notes: as for B1

- binding result (人4-1BB on Jurkat-4-1BB细胞): binds
- binding result (4-1BB-ECD-hFc [1]): binds
B12: 抗人4-1BB杂交瘤抗体8H8 (antibody, V domains shown)
VH: QIQLVQSGPELKKPGETVKISCKASGYTFSNYGMNWVKQAPGKGLKWMGWINTHTGEPTYADEFKGRFAFSLETSVSTAYLQINNLKNEDTATYFCARVLTMVMDYWGQGTSVTVSS
VL: DIVLTQSPASLAVSLGQRATISCRASEIIDGSGNSFVHWYQQKPGQPPKLLIYRTSTLESGIPARFSGSGSRTDFTLTINPVEADDVATYSCLQTVEDPWTFGGGTKLEIK
notes: as for B1
